Substrate: Nc1nc2c(ncn2[C@@H]2O[C@H](COP(=O)(O)OP(=O)(O)OP(=O)(O)O)[C@@H](O)[C@H]2O)c(=O)[nH]1
Test: purified protein
Assay type: biochemical, Homo sapiens
Conditions: 12 μM GTPBP8, 0-3 mM GTP, kit reaction buffer, 25 °C, intrinsic GTPase activity

B1: GTPBP8 (GTP-binding protein 8) (Homo sapiens) (protein)
chain: MAAPGLRLGAGRLFEMPAVLERLSRYNSTSQAFAEVLRLPKQQLRKLLYPLQEVERFLAPYGRQDLHLRIFDPSPEDIARADNIFTATERNRIDYVSSAVRIDHAPDLPRPEVCFIGRSNVGKSSLIKALFSLAPEVEVRVSKKPGHTKKMNFFKVGKHFTVVDMPGYGFRAPEDFVDMVETYLKERRNLKRTFLLVDSVVGIQKTDNIAIEMCEEFALPYVIVLTKIDKSSKGHLLKQVLQIQKFVNMKTQGCFPQLFPVSAVTFSGIHLLRCFIASVTGSLD
notes: His-tagged, purified; full-length human CDS in pENTR221, GTPBP8 cloned into pHAT (and pGAT2); full-length 284 residues
B1 gave a Km of 200 ± 40 µM and a kcat of 0.000132 ± 5.5e-05 s⁻¹.
